Data from the DeepSol protein solubility set.

Assay: soluble on expression in E. coli; label from the status in PepcDB or PDB records

Row | Sequence | soluble on expression in E. coli
1 | MNYNPEEQFRCTIIRGKAKNMLDNLLPAYANIIDDICPCDKASFVKDFNNRLIEILGEETTKKTLDNHRTEIAGKLFGMFYEDDEVIFPSGRTNKYIEDSDQPAFFKDICFKFQFPNGMDKLDKVIEKVGAKIQIRQFPYILQVLLTADNNNIQLSKDDIAYYVLNSLQVLQGKIKPIEVIEKIIEDRSNDITKKVRHPGKETSYSMQHIREQLNYLELANLIRIDGNLVKLNYREAENINYIAQFWGNKPEFNAYKYDFTSEDDKKSFFKDWQQYYSNVNSHKS | soluble
2 | MSHIRVAFAPLDTNPSTCGLETFATQIETLSQMMTAEEMKAELYDCVRRILREQKFDQIRENEAMLRLYKVMGRSSTNLKGRGIYEQLFKKDHFTGSLKFYLQWAEECGKDQMLEEFKDVLKLARDRLSERIEMTAIESGFRDLVDEYFNGESGDMFTRPDETMDLFRFNAGSKKKRRSSVCFLQHNVPINNSGKAAFGPKTKTDLRQACIDRPNYHGISIEEFRFAKWKDTFGEDVDDDYRKRKDSGVVFVKHQVIDTDRQAREEVENRFNANLNPRRRHLSPVSEKTVDDEEEKRSRIYSPLVATKDAHRPALRSKIENPPATVTLSSDTKSASEKDVSDSDDADDDERLKIMTAGRKDGNPPDRSTSISSNYSTASARTSKSGAGLDLMAENKCLEAHAMFSDTVHLASEKTMVLGDDSVFVPERSLATTQIVTDFSVLCDPDPTMTITQERPKKVSNGLNVVYDEAAEPEESQKVEESEVQPEIVLVSPVTQTSPATMFNDIYDDEIEFGFFKPSRGNFVTSTPAQGVHLVNIDEYFGNKEEESTHEQEAPVFVAPTSSTFSKLTRRKSLAANQAVQPSVTESSKPERSDPKDSSIDCLTANLGRRLSIGADEIPNLTENNESEITGCKIRRRSEIIKQGDINPWDETLRKKLMCLVRPPQNMHEFQERAPKIQALRDCEVSGEKLHIQTLIGQGGYAKVYRAVTDDQRTVAVKYEVPSCSWEVYICDQMRNRLKDRGLELMAKCCIMEVMDAYVYSTASLLVNQYHEYGTLLEYANNMKDPNWHITCFLITQMARVVKEVHASKIIHGDIKPDNFMITRKIDDKWGKDALMSNDSFVIKIIDWGRAIDMMPLKNQRFKGRAGTEAFDCPEMVDGRSWTYQADYFGFAATMAVVVAGKYAQLTGASVGDYSLNVDIKRRNILRDACYDVINRFLNIPSCDSLPDWNILIKSFSEIWNEKFEASGWRQAVSKFNEACDLAANQK | not soluble
3 | MPLEGEYEPSPTQWVRDQVELYESSGGTKGTTLMDTGLPVIILTTLGAKSGKIRKTPLMRVEHDGKYAAVASLGGAPKHPVWYYNVLGTPAVELQDGAVRKEFTAREVTGEEKAQWWERAVAAYPPYAEYQEKTDREIPVFVLEPAG | not soluble
4 | MAHHHHHHMLKRSGTICSLQSVVRGAAKIAAAIVDASVGNVNVVDNSHNGEGGTPARAAGRSHTSSPPEVLPRSVVTQLHESKDDLRKNAVYMSVPSTRITRAAGFASLFVQLGWDHLVDRNGEGILSSQSHKRVVNTLRRMRGVVLKLGQMLSIQDPATVPQYVLQLFEQVRDSAYAMSREQLDQTLAKEYENINWRKDFFLEFDDEPIGAASIGQVHRATIKGEGDTQIEHVAVKVQYPGVATSIDSDIANLKMLISLHLLPPGMFVDRILQDLRQEFLLECRYKIEAAKQVRYAALIKQEPELQEVFVVPKVYESLSTENVLVTQFVTGIPVDRLANISGVQDLKNYVAERMLLLTLTELFRWRFMQTDPNYANFLFDAEKNKISLIDFGAAREYSKEFVKDYMDVVAAAARQDRDRIIEKSIKLGFLTGNEMKPMLDAHAASVELLGRPFRHHDKPFDFSAENLPSKIQEHVPTIIKLRLRPPPTPVYSLHRRISGIILLATKLKATVNSGEMFWNIYNSCRTNYE | not soluble
5 | MSIWCAVCNDLKPCEEATQLIPCLHTFCTKCLKKSTKKMRVCPVAHCYSSLTAPEPMTSTCEGENCQRKIMGNAEILRTACHHDICQHCYDLASRKEKSCCPALGCAELMIDEEDMICEGPCKKALVFDKTIVIPCCGARMCDVCGPKWTNGRDFCELGKCVNKESAKRRKSADATRQPCMGSLHCEGEVLRNFPSELECDHDVCIKCIGSMLDECEKNGKSPACPVKTCAIPYRCESVLALDAQFPEKKAFFSKFTLQAKFSMQTLKDDIVTNIIHGDLNTMNGQKFSLKIGQCDDDDGGMPMEFVREGTLGDLVRETRRVLKILPTDKIYGYYRIDDNKKSKLDVTKDTIRSSCSSLNINENTTVLVDTTGIVSRPKKQ | not soluble
6 | MGSDKIHHHHHHMKDEVLIYSWVGEENIGDELILKSIVRMIEKIDDRLKVNVMGTKPKVINKIHNHLGLNRISTYINWTLKSILRAILKHNIFKAILNILCSNKLIIASGGALSDWNPSSTKTIFFLIDLFYFMNRPICMMGVGAGPILHEKSKKRFYNKLKKLEVITVRDEESYELLKSIGLKNVILTSDSVFNICSIIQNKYPEKDVTEKKISFVLAKLFKDNTKELKEYKEEIIKTINRLKKENWKIKLVPFHYSEDIGFLKSINQKCNVEILNSHDMYDTIGELNNENIIVGMRYHSVIMSLVLGKKVIPLIYHPKVYSVARRFEILDIAENVGNGGNWIGSNISSERLLKNIEKLYKSDENTAKNRGKVLRIVKQNDLNNEILARFLRHSNVLEVVSYNVQRH | not soluble
7 | MEKFLVIAGPNAIESEELLLKVGEEIKRLSEKFKEVEFVFKSSFDKANRSSIHSFRGHGLEYGVKALRKVKEEFGLKITTDIHESWQAEPVAEVADIIQIPAFLCRQTDLLLAAAKTGRAVNVKKGQFLAPWDTKNVVEKLKFGGAKEIYLTERGTTFGYNNLVVDFRSLPIMKQWAKVIYDATHSVQLPGGLGDKSGGMREFIFPLIRAAVAVGCDGVFMETHPEPEKALSDASTQLPLSQLEGIIEAILEIREVASKYYETIPVK | soluble
8 | MAGMHFLVGISTENYVILAADKATFAYGAILADSENDKEYRLGKKLTMMCIGEEGDVAQFGDWTKRNLQLYSVRNGYEVSPSCAHHFVRRSIAEGLRSQDHYTVDVLIGGYDDKEDKAFLGSVDYLANGLGQQPYLFRGFCGRFCYAIMDREYKKDMTEAEGLALMNKCIGEAKRRFVANIPGYKVVIIDKKGYRKLDDVLF | soluble
9 | MDSKLIGKICKSIRYRDYETAIFLAACLLPCKPEYRMLMSIVLYLNGEYTRALFHLHKLNTCTSKYYESLCYKKKKDYKKAIKSLESILEGKVERDPDVDARIQEMFVDPGDEEFFESLLGDLCTLSGYREEGIGHYVRSFGKSFLFSPVENLLLENKVPQKRDKENVRQTGRRGIEEEYVSDSIEFHESLSPSLVKKYMEHVPGIGSYFISNAARRYFNLGMNDKSKACFELVRRKDPMFL | soluble
10 | MKIVILAPTITPIVSYGGLGDVMRDLPKFLKKGNEVVVLTLNHYNRYFTLPYEDIKKITVIYKGAKITFDVLRTKHPTTGVDLIVFSNESVNNLNVWDPIKYEIFADLVITYLDEVKDIDVVSGHDWMCGLAIAKCNDILDLPTTLTIHNEAFKGEMIEYKGEVMTFLELGIKYADAVNTVSPSHAEEIKNYPYIKKYLNNKPFCGILNGIDIDEYDPMKIIERMCNLSNNKLDPRNYAYISPYSAEDSHNIKPKIKYSWFYRGGVYEYVEDWNKIDKGISATDVEVHGGVDGDIETPLIGFVGRATHQKGFNTMFEAIPELLEKHDIRFVFLTKGDRDIEERLKNLANEHDGRILALIGYSLPLSSLVFAGSDWIIMPSYWEPCGLVQMEAMAYCTPVIATETGGLKDTIIPLHPNPYEHPNFDKATGVLFKVPDKVGFMWGVEHALNWTFYKLNEICMFMQYIRYKCPKHPYDENSPLSMMMKNCYYHVFRNLSWQNSPSIRKYKGLFGGAIYNHYLQP | soluble
11 | ANKLDSKKLTRSNGTTLEYSQITDADNATKAVETLKNSIKLEGSLVVGKTTVEIKEGTVTLKREIEKDGKVKVFLNDTAGSNKKTGKWEDSTSTLTISADSKKTKDLVFLTDGTITVQQYNTAGTSLEGSASEIKNLSELKNALK | soluble
12 | MGSDKIHHHHHHMRSIADQYNVSTNSVSRRILALGKQTMPAYDGLPQTLCIDEFRSTSNQMSFITIDGQKHDIITILPGRQTNEIKQFFLNHYSLKNREQVTQVVMDLNAQYQTFIHYLFPNAKLIVDNFHLVQMALRALNQTRVQLMKKYHPNTPEYWVLKSYWRLYLMNYEALEKSQPQWFSHLRNRLTQEQLIWSGLNLSHEFENTYFTAHKLVEAFRSRDYAAFTATLDEVENVSPQLFTTIKTFIKNKKLIQNMTSSTLSNGPIEGVNRKIKQIKRTAYGYRNWKNFVFRIQIEFKIRLKKRNPVRK | not soluble
